We go through four substances from article PMC10139940.

The target of the assay is Active site-blocked human EGR-bound FIXa (human) (UniProt P00740). Briefly: SPR. A general note: In SPR one partner is held on a chip, and binding of the other changes the refractive index at the surface.
UniProt P00740, sequence (P00740 47-191, chain 1 of 2): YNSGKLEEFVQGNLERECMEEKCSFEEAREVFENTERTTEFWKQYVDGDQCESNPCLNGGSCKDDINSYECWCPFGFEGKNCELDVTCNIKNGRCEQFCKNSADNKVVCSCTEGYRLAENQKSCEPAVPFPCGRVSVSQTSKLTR
UniProt P00740, sequence (P00740 227-461, chain 2 of 2): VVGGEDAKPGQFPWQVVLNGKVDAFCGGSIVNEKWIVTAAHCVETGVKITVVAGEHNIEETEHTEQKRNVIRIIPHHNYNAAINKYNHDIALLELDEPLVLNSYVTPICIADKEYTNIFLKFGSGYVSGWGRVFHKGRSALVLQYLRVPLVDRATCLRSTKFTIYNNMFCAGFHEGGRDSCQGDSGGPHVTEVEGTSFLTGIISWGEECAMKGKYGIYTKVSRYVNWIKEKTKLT
As a reminder, the Kd is the equilibrium constant for the complex coming apart. A high value points to weaker binding. “B domain-deleted FVIII double mutant K1813A/K1818A (natural protein)” returned a Kd of 4.7 nM.

“B domain-deleted WT-FVIII lacking Q744-S1637 (natural protein)” displayed a dissociation constant (Kd) of 6.3 nM.

As to “B domain-deleted FVIII mutant K1813A (natural protein)”, the dissociation constant (Kd) worked out at 3.9 nM.

“B domain-deleted FVIII mutant K1818A (natural protein)” displayed a Kd of 5.1 nM.
